Patent US6072028, “EPR-1 proteins, polypeptides, and nucleic acid molecules encoding same” (The Scripps Research Institute, dated 2000)

Legend:
coagulation factor Xa [1] = target: T1, coagulation factor Xa (human, UniProt P00742); assay: saturation binding of ^125 I-Xa to HuT 78* cells, 2.5 mM CaCl2
Procedure: The procedures for the isolation, characterization, and ^125I-labelling of factor Xa were as described previously by Altieri, et al., *J. Biol. Chem.* 264: 2969 (1989). The interaction of ^125I-Xa with HuT 78* cells was analyzed by incubating increasing concentrations of ^125I-Xa (0.45 to 36 nM) with cell suspension at 1.5 to 2×10^7/ml in the presence of 2.5 mM CaCl_2 for 20 minutes at room temperature. At the end of the incubation, the reaction was terminated by centrifugation of aliquots of the cell suspension at 12,000×g for 2 minutes through a mixture of silicone oil to separate free from cell-associated radioactivity. Nonspecific binding was quantified in the presence of 50-fold molar excess of unlabelled factor Xa added at the start of the incubation reaction, and was subtracted from the total to yield net specific binding. In some studies, aliquots of HuT 78* cells were preincubated with 50 µg/ml of mAb 9D4 for 30 minutes at room temperature before the addition of serial concentrations of ^125I-Xa.
HuT 78* cells reacting with the rabbit polyclonal antiserum B78.9 were isolated to 94.2% purity by fluorescence sorting and cloned by limiting dilution. […] The reaction was terminated by centrifugation through mixture of silicone oils and ^125I-Xa specific binding to HuT 78* cells was calculated in the presence or absence of anti-EPR-1 mAb 9D4.

coagulation factor Xa [2] = target: T1, coagulation factor Xa; assay: saturation binding of ^125 I-factor Xa (0.45-36 nM) to EPR-1 CHO transfectants, 2.5 mM CaCl2
Procedure: In FIG. A, wild-type (WT) CHO cells (closed squares) or EPR-1 CHO transfectants (closed circles) were incubated with increasing concentrations of ^125I-factor Xa (0.45–36 nM) for 15 minutes at 22° C. In the presence of 2.5 mM CaCl_2. Non-specific binding was assessed in the presence of a 50-fold molar excess of unlabeled factor Xa and was subtracted from the total to calculate net specific binding. Data are the mean±S.E.M. of two independent experiments. ^125I-factor Xa bound at saturation (27 nM) to EPR-1 CHO transfectants corresponded to 729,000±102,000 molecules/cell. […] Thrombin formation in the presence or in the absence of anti-EPR-1 mAb 9D4 (Altieri, et al., Id. (1990)) was assessed by a sensitive clotting assay as described (Altieri, et al., Id. (1989)). Data are expressed as mean±S.E.M. of two independent experiments.
The experimental procedures for the isolation, characterization and ^125I-labeling of factor Xa have been described previously (Altieri, et al., Id. (1989)). […] In the presence of 2.5 mM CaCl_2, before separation of free from cell-associated radioactivity by centrifugation through mixture of silicone oil (Dow Corning, New Bedford, Mass.) at 15,000 xg for 5 minutes at 22° C. Non-specific binding was assessed in the presence of a 50-fold molar excess of unlabeled factor Xa and was subtracted from the total to calculate net specific binding. […]

- Kd (coagulation factor Xa [1]): 10 to 20 nM
- Kd (coagulation factor Xa [2]): 10 to 15 nM
B1: Effector cell Protease Receptor-1 (EPR-1), on the cell surface (receptor)
chain: MTSRGFQRSCNNPPCSSMTGRRANQIHHLTPDFSLRELLPPKKAGTWADCVSPPCGERDRCEGWADRHTACSSPASTCQVHTQDCDSLNNMRSRHIHCGRLCHANKAVSSSKRDTAFFLPHFSPGKPGNQNSKNEPPKKRERERSSHCYPAAPAAQAEAPLVPLSRQNKSTVETSNLKMLISFPKTLLRGPQEGWWHQGINPGSGAATLGPGSSERPQSIEASCSMARRTFFAVSSNSFFLLLVSFAILFLALSLSSFKNSPRVNSSNCFLTERKAQPDECFLCSSMGSSSGSQPSSSLKQKKHWAKSGSFSVGQWMKPASAIRSGVQRSPPRRASS
